Columns and labels:
[1] = molecular target: L10C/L89C SaMscL (S. aureus) (UniProt Q6G9L1); assay: cross-linking; in vivo disulfide trapping of double-cysteine mutants in the cell membrane; cells osmotically shocked (water with 1.5 uM copper phenanthroline, 15 min, 37 C) or mock shocked; non-reducing SDS-PAGE, anti-Penta His Western blot
[2] = molecular target: the molecule itself; assay: SEC-MALS; SaMscL purified in LDAO, then exchanged into C8E5 and measured the following day
[3] = molecular target: the molecule itself; assay: cross-linking; purified protein in LDAO (2.1 mM final); 5 ug protein with 2 mM DSS on ice for 5 min; anti-Penta His Western blot
[4] = molecular target: the molecule itself; assay: cross-linking; in vivo disulfide trapping of double-cysteine mutants in the cell membrane; cells osmotically shocked (water with 1.5 uM copper phenanthroline, 15 min, 37 C) or mock shocked; non-reducing SDS-PAGE, anti-Penta His Western blot

Molecule: L10C/L89C SaMscL (from UniProt Q6G9L1 1-120) (natural protein)
- stoichiometry N [1]: 5

B1: S. aureus mechanosensitive channel of large conductance (SaMscL) (natural protein, UniProt Q6G9L1 1-120, looked up)
chain: MLKEFKEFALKGNVLDLAIAVVMGAAFNKIISSLVENIIMPLIGKIFGSVDFAKEWSFWGIKYGLFIQSVIDFIIIAFALFIFVKIANTLMKKEEAEEEAVVEENVVLLTEIRDLLREKK
notes: MscL, large-conductance mechanosensitive channel of S. aureus, GenBank CAG43065; printed monomer mass 14.4 kDa; the printed GenBank entry holds; Pentamer in Triton X-100 and C8E5 and in vivo; tetramer in LDAO (copies would then be 4); Expressed from two vectors (pET21a, pB10) with no difference reported; also called S. aureus MscL; source: E. coli PB116 (pET21a), purified (DM extraction, Ni-NTA, …)
- stoichiometry N [2]: 5
- stoichiometry N [3]: 4

B2: L10C/M91C SaMscL (natural protein)
chain: MLKEFKEFACKGNVLDLAIAVVMGAAFNKIISSLVENIIMPLIGKIFGSVDFAKEWSFWGIKYGLFIQSVIDFIIIAFALFIFVKIANTLCKKEEAEEEAVVEENVVLLTEIRDLLREKK
notes: also called L10C/M91C protein; source: bacterial cultures induced with 1 mM IPTG, in the cell membrane (cells lysed in sample buffer)
- stoichiometry N [4]: 5

Source: publication PMC2998437, “S. aureus MscL Is a Pentamer In Vivo but of Variable Stoichiometries In Vitro: Implications for Detergent-Solubilized Membrane Proteins” (PLoS Biology, 2010)
